The values that follow come from patent US20090324491A1 (FORERUNNER PHARMA RESEARCH, published 2009).

B1: anti-EREG mouse monoclonal antibody EP20 (B2#30) (antibody, mouse IgG1, V domains shown)
VH: QVQLQQSGAELVRPGVSVKISCKGSGYTFTVYSLHWVKQSHARSLEWIGVISTYYGDAIYNQKFKGKATMTVDKSSSTAYMELARLTSEDSAIYYCAREGNGNPLDYWGQGTTLTVSS
VL: QIVLTQSPAIMSASLGERVTMTCTASSSVSSSYLHWYQQKPGSSPKLWIYSTSNLASGVPARFSGSGSGTSYSLTITNMEAEDSATYYCHQYHRSPLTFGAGTKLELK
notes: Mouse IgG1/κ hybridoma antibody
B2: anti-EREG mouse monoclonal antibody EP27 (B3#18) (antibody, mouse IgG2b, V domains shown)
VH: EDQLQQSGAELVKPGASVKLSCTASGFNIKDTYIQWVKLRPEQGLEWIGRIDPLNGNTKYVPKFQGKATITADTSSNTAYLQLSSLTSEDTAVYYCVRSGTLFDFWGQGTTLTVSS
VL: DIQMTQSPSSLSASLGGKVTITCKASQDIHKYIAWYQHKPGKGPRLLIQYTSTLQPGIPSRFSGSGSGRDYSFSISNLEPEDIATYYCLQYDNLRTFGGGTKLEIK
notes: also called B3#18_IgG2b
B3: anti-EREG mouse monoclonal antibody EP03 (C7) (antibody, mouse IgG1, V domains shown)
VH: QVQLQQPGAELVKPGASVKLSCKASGYTFTNYWMNWVKQRPGRGLEWIGRIHPSDSETHYNQKFKNKATLTVDKSSSTAYIQLSSLTSEDSAVYYCANLYYYTMDYWGQGTSVTVSS
VL: DIQMTQSPSSLSASLGGKVTITCKASQDINKNIAWHQHKPGKGPRLLIWYTSTLQPGIPSRFSGSGSGRDYSFSISNLEPEDIATYYCLQYDNLPYTFGSGTKLEIK
notes: as for B1
B4: anti-EREG mouse monoclonal antibody EP08 (#15) (antibody, mouse IgG1, V domains shown)
VH: QVQLQQPGAELVKPGASVKLSCKASGYTFTSYWMHWVKQRPGQGLEWIGEINPYNGGTNYNEKFKSKATLTVDKSSSTAYMQLSSLTSEDSAVYYCTIWKLGTYWGQGTLVTVSA
VL: DIQMTQSPSSLSASLGERVSLTCRASQEISGYLSWLQQKPDGTIKRLIYAASTLDSGVPKRFSGSRSGSDYSLTISSLESEDFADYYCLQYASYPRTFGGGTKLEIK
notes: as for B1
B5: anti-EREG mouse monoclonal antibody EP24 (B3#8) (antibody, mouse IgG1, V domains shown)
VH: QVQLKESGPGLVAPSQSLSITCTVSGFSLSSYGVHWVRQPPGKGLEWLGVIWRDGSTTYNSALKSRLSISKDGSKSQVFLKMNSLQTDDTAMYYCARNWNGLMDYWGQGTSVTVSS
VL: DIQMTQTTSSLSASLGDRVTISCRASQDISYYLNWYQQRPDGTVKLLIYYTSRLHSGVPSRFSGSGSGTESSLTISNLEQEDIATYFCQQGHTVPWTFGGGTKLEIK
notes: as for B1
B6: anti-EREG mouse monoclonal antibody EP29 (B3#41) (antibody, mouse IgG1, V domains shown)
VH: EVQLQQSGTVLARPGASVKMSCKASGYTFTSYWMHWVKQRPGQGLEWIGAIYPGNSDSYNQKFKGKAKLTAVTSTSTAYMELSSLTNEDSAVYYCTSVMAYWGQGTSVTVSS
VL: DIQMTQSPSSLSASLGERVSLTCRASQDIGNSLNWLQQEPDGTIKRLIYATSNLDSGVSKRFSGSRSGSDYSLTISSLESEDFVDYYCLQYASSPWTFGGGTKLEIK
notes: as for B1

In the first experiment the target is T1, soluble human EREG fragment (EGF domain; 63Val to 108Leu) comprising a mature structure, R&D Systems cat. no. … (human, UniProt O14944 63-108).
T1 construct: Bought protein; also called soluble EREG; recombinant human EREG
T1 sequence (O14944 63-108): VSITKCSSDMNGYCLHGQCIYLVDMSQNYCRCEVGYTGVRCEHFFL
The experiment is described as follows: ELISA, EREG fragment immobilized on immuno plate. The protocol:
(§1) The binding towards partial fragments of the extracellular domain of human EREG was analyzed to determine antibody epitope. The N-terminal partial sequence fragment of ²⁹Ala to ⁶⁹Ser of human EREG of SEQ ID NO: 21 was expressed as a GST fusion protein and purified to homogeneity. The sequence of the obtained recombinant protein is shown in SEQ ID NO: 172. A soluble human EREG fragment (EGF domain; corresponding to ⁶³Val to ¹⁰⁸Leu of SEQ ID NO: 21) comprising a mature structure was purchased from R&D Systems (cat. no. 1195-EP/CF). Fragments of the EREG protein were immobilized onto an immuno plate, and the binding of the antibodies was examined by ELISA. Most of the antibodies bound to the soluble EREG fragment that comprises the EGF domain (indicated as “ereg” in Table 3). EP25 and EP32 bound to the N-terminal fragment (“Nterm”). All of the isolated antibodies bound to either one of the peptide fragments, and none of the antibodies recognized the sequence beyond residue 109.
For orientation: In an ELISA, binding on a coated surface is turned into a signal by an enzyme label.
Consider B1, for which the binding result is listed as “binds”.

Turning to B2, the binding result is “binds”.

As to B3, the binding result is given as “binds”.

On to B4, for which the binding result is “binds”.

For the molecule B5, the binding result is “binds”.

The next experiment deals with T1, soluble human EREG fragment (EGF …). The experiment is described as follows: ELISA, EREG fragment immobilized on immuno plate; note: binds, but with low reactivity. The protocol: as §1
B6: the binding result is “binds”.
